One may read the Km as the concentration of substrate that gives half-maximal velocity.

The text below walks through data of patent US5498695A, “Paranitroaniline peptides” (Pfizer Inc., priority 1994, dated 1996).

Test in all cases: Spectrophotometric hydrolysis of pNA substrates by immobilized ICE (release of pNA at 405 nM)
Common to all, as to assay type: biochemical, Human
What all share (conditions): other: pNA substrate 0.01 to 1.5 mM, 25° C., pH 7

Substrate in series [1]: CC(=O)N[C@H](C(=O)N[C@@H](C)C(=O)N[C@@H](CC(=O)O)C(=O)Nc1ccc([N+](=O)[O-])cc1)C(C)C
On the procedure:
(§1) Other procedures for purification and assaying ICE are disclosed in Black et al., FEBS Letters, 247, 386-390 (1989), and Thornberry et al., Nature, 356, 768-774 (1992). Cell Culture And Lysates.
(§2) Human monocyte cell line, THP-1 (ATCC-TIB 202) was grown in RPMI media 1640 (Gibco BRL Gaithersburg, Md. 20877) with 10% fetal bovine serum, harvested by centrifugation, washed twice in Dulbecco's PBS […] without Ca^++, and resuspended in 10 mM Tris-HCl pH 8 buffer containing 5 mM DTT (dithiothreitol), 1 mM EDTA (ethylene diamine tetraacetic acid), 1 mM PMSF (phenylmethyl sulfonylfluoride), 1 μg/ml pepstatin, and 1 μg/ml leupeptin at 1-3×10^8 cells per ml. Cells were frozen at -70° C. until use and then lysed by thawing. Lysates were cleared by centrifugation at 20,000× g for 1 hour followed by 120,000×g for 1 hour.
(§3) ICE activity was purified from THP-1 cell lysates by three chromatographic steps: (A) Thp-1 cell lysate (1.5L) was desalted by G25 column chromatography (Pharmacia LKB Biotechnology) (B) The protein fraction was then subjected to ion-exchange chromatography on Q-Sepharose Fast Flow (Pharmacia LKB Biotechnology) in buffer A (20 mM Tris pH 7.8 containing 5 mM EDTA, 1 mM PMSF, 1 μg/ml pepstatin, and 1 μg/ml leupeptin). ICE activity was eluted with a gradient of NaCl in buffer A. (C) The active fractions from B were desalted, concentrated and subjected to MonoQ (trademark) (Pharmacia LKB Biotechnology) column chromatography. ICE activity was then eluted in a NaCl gradient. Active ICE fractions from C were pooled and used to bind immunoaffinity beads containing covalently linked antibodies raised against the first […] N-terminal residues of ICE (NH2 -Asp-Pro-Ala-Met-Pro-Thr-Ser-Ser-Val-Lys-Leu-Cys(SEQ ID NO:2)-CONH2).
(§4) Immobilization of ICE to immunoaffinity beads was done following standard protocols. Briefly, IgG fractions were covalently linked to protein A beads as described by the manufacturers (Antibody Orientation Kit Protein A Agarose supplied by Affinica (trademark) (Product manufactured by Schleicher and Schuell)). Protein A beads were pelleted by centrifugation and washed with 5 times their volume with Affinica (trademark) supplied "binding buffer". IgG, appropriately diluted in "binding buffer," was then bound to the beads. The beads were then washed and the bound IgG was covalently linked with dimethyl suberimidate. After the reaction was stopped with the "quenching buffer" supplied by Affinica (trademark), the immunoaffinity beads were washed and stored in PBS buffer containing 0.02% NAN3. […]
(§5) The enzymatic reaction was monitored spectrophotometrically at […]. The increase in absorbance at this wave length resulted from the release of pNA chromophore after hydrolysis by ICE of the peptidic-pNA substrate. […]

Substrate in series [2]: CC(=O)N[C@@H](Cc1ccc(O)cc1)C(=O)N[C@H](C(=O)N[C@@H](C)C(=O)N[C@@H](CC(=O)O)C(=O)Nc1ccc([N+](=O)[O-])cc1)C(C)C
On the procedure:
as §1, §2, §3, §4, §5

Substrate in series [3]: CC(C)[C@H](NC(=O)OCc1ccccc1)C(=O)N[C@@H](C)C(=O)N[C@@H](CC(=O)O)C(=O)Nc1ccc([N+](=O)[O-])cc1
On the procedure:
as §1, §2, §3, §4, §5

Substrate in series [4]: CC(C)[C@H](NC(=O)OC(C)(C)C)C(=O)N[C@@H](C)C(=O)N[C@@H](CC(=O)O)C(=O)Nc1ccc([N+](=O)[O-])cc1
The protocol: as §1, §2, §3, §4, §5

B1: interleukin 1β converting enzyme (ICE) (Homo sapiens) (protein)
chain 1: NPAMPTSSGSEGNVKLCSLEEAQRIWKQKSAEIYPIMDKSSRTRLALIICNEEFDSIPRRTGAEVDITGMTMLLQNLGYSVDVKKNLTASDMTTELEAFAHRPEHKTSDSTFLVFMSHGIREGICGKKHSEQVPDILQLNAIFNMLNTKNCPSLKDKPKVIIIQACRGDSPGVVWFKD
chain 2: AIKKAHIEKDFIAFCSSTPDNVSWRHPTMGSVFIGRLIEHMQEYACSCDVEEIFRKVRFSFEQPDGRAQMPTTERVTLTRCFYLFPGH
notes: ICE activity was purified from THP-1 cell lysates by three chromatographic steps; endogenous in cells; host or cells: THP-1 (ATCC-TIB 202) human monocyte cell line; Lysate was purified over G25, Q-Sepharose and MonoQ, then captured on protein A agarose beads carrying anti-ICE antibody
Regarding B1, the Km in series [1] worked out at 447 µM; in series [2], 43.8 µM; in series [3] it was 97.9 µM; in series [4] it was 443 µM.
